Laboratory results reported in the supplement of paper PMC5998384.

Columns and labels:
[1] = system: HeLa Kyoto; assay: melting temperature (median over replicates), in situ; higher = more thermally stable
[2] = system: HeLa Kyoto; assay: solubility change mitosis vs G1/S (difference of NP-40 vs SDS log2 ratios) (log2 ratio difference); higher = more soluble in mitosis
[3] = system: HeLa Kyoto; assay: solubility in G1/S (NP-40 vs SDS abundance) (log2 ratio); higher = more soluble; settings: cell cycle stage: G1/S
[4] = system: HeLa Kyoto; assay: thermal stability score vs G1/S (z-score of summed log2 fold changes over temperatures); higher = more thermally stable than in G1/S
[5] = cell cycle stage: early G1 (4.5 h after nocodazole release)
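Wherever melting temperature (median over replicates), in situ is given: HeLa Kyoto cells synchronized by double thymidine or nocodazole block, proteins quantified by TMT10plex mass spectrometry, three independent biological replicates.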
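Wherever solubility change mitosis vs G1/S (difference of NP-40 vs SDS log2 ratios) is given: synchronized HeLa Kyoto cells (double thymidine block for G1/S, nocodazole release for mitosis), protein amounts in NP-40 versus SDS lysates quantified by mass spectrometry, three biological replicates.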
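Wherever solubility in G1/S (NP-40 vs SDS abundance) is given: HeLa Kyoto cells arrested at G1/S by double thymidine block, proteins quantified by TMT10plex mass spectrometry in mild NP-40 versus SDS extracts, three biological replicates.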
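Wherever thermal stability score vs G1/S (z-score of summed log2 fold changes over temperatures) is given: synchronized HeLa Kyoto cells, proteins quantified by TMT10plex mass spectrometry, three biological replicates, mitosis taken 0.5 h after nocodazole release, G1/S directly after double thymidine block.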

Which melting temperature ([1]; cell cycle stage: G1/S) does the source give for “MAAHLVKRCTCLLREAARQAPAMAPVGRLRLAWVAHKTLTSSATSPISHLPGSLMEPVEKERASTPYIEKQVDHLIKKATRPEELLELLGGSHDLDSNQAAMVLIRLSHLLSEKPEDKGLLIQDAHFHQLLCLLNSQIASVWHGTLSKLLGSLYALGIPKASKELQSVEQEVRWRMRKLKYKHLAFLAESCATLSQEQHSQELLAELLTHLERRWTEIEDSHTLVTVMMKVGHLSEPLMNRLEDKCLELVEHFGPNELRKVLVMLAAQSRRSVPLLRAISYHLVQKPFSLTKDVLLDVAYAYGKLSFHQTQVSQRLATDLLSLMPSLTSGEVAHCAKSFALLKWLSLPLFEAFAQHVLNRAQDITLPHLCSVLLAFARLNFHPDQEDQFFSLVHEKLGSELPGLEPALQVDLVWALCVLQQAREAELQAVLHPEFHIQFLGGKSQKDQNTFQKLLHINATALLEYPEYSGPLLPASAVAPGPSALDRKVTPLQKELQETLKGLLGSADKGSLEVATQYGWVLDAEVLLDSDGEFLPVRDFVAPHLAQPTGSQSPPPGSKRLAFLRWEFPNFNSRSKDLLGRFVLARRHIVAAGFLIVDVPFYEWLELKSEWQKGAYLKDKMRKAVAEELAK [TBRG4]” here?
Its melting temperature is 48.4 °C.

What about the melting temperature ([1]; cell cycle stage: mitosis) of the same sequence?
The melting temperature was 48.2 °C.

And the “solubility change mitosis (log2)” value [2]?
Its value is -0.127.

And the “solubility in G1/S (log2)” value [3]?
Its value is 0.123.

What about the thermal stability score [4, 5] of the same sequence?
The thermal stability score was 0.141.

What about the thermal stability score ([4]; cell cycle stage: mitosis) of the same sequence?
The thermal stability score was 3.9.

For “MTPEFDEEVVFENSPLYQYLQDLGHTDFEICSSLSPKTEKCTTEGQQKPPTRVLPKQGILLKVAETIKSWIFFSQCNKKDDLLHKLDIGFRLDSLHTILQQEVLLQEDVELIELLDPSILSAGQSQQQENGHLPTLCSLATPNIWDLSMLFAFISLLVMLPTWWIVSSWLVWGVILFVYLVIRALRLWRTAKLQVTLKKYSVHLEDMATNSRAFTNLVRKALRLIQETEVISRGFTLVSAACPFNKAGQHPSQHLIGLRKAVYRTLRANFQAARLATLYMLKNYPLNSESDNVTNYICVVPFKELGLGLSEEQISEEEAHNFTDGFSLPALKVLFQLWVAQSSEFFRRLALLLSTANSPPGPLLTPALLPHRILSDVTQGLPHAHSACLEELKRSYEFYRYFETQHQSVPQCLSKTQQKSRELNNVHTAVRSLQLHLKALLNEVIILEDELEKLVCTKETQELVSEAYPILEQKLKLIQPHVQASNNCWEEAISQVDKLLRRNTDKKGKPEIACENPHCTVVPLKQPTLHIADKDPIPEEQELEAYVDDIDIDSDFRKDDFYYLSQEDKERQKREHEESKRVLQELKSVLGFKASEAERQKWKQLLFSDHAVLKSLSPVDPVEPISNSEPSMNSDMGKVSKNDTEEESNKSATTDNEISRTEYLCENSLEGKNKDNSSNEVFPQGAEERMCYQCESEDEPQADGSGLTTAPPTPRDSLQPSIKQRLARLQLSPDFTFTAGLAAEVAARSLSFTTMQEQTFGGEEEEQIIEENKNEIEEK [VEZT]”, which melting temperature ([1]; cell cycle stage: G1/S) is on record?
The melting temperature was 52.6 °C.

What about the melting temperature ([1]; cell cycle stage: mitosis) of the same sequence?
The melting temperature was 52 °C.

What about the “solubility change mitosis (log2)” value [2] of the same sequence?
Its value is -0.229.

And the “solubility in G1/S (log2)” value [3]?
The value was 0.0301.

What about the thermal stability score [4, 5] of the same sequence?
The thermal stability score was -1.08.

What about the thermal stability score ([4]; cell cycle stage: mitosis) of the same sequence?
Its thermal stability score is -3.04.

Which melting temperature ([1]; cell cycle stage: G1/S) does the source give for “MGAAHSASEEVRELEGKTGFSSDQIEQLHRRFKQLSGDQPTIRKENFNNVPDLELNPIRSKIVRAFFDNRNLRKGPSGLADEINFEDFLTIMSYFRPIDTTMDEEQVELSRKEKLRFLFHMYDSDSDGRITLEEYRNVVEELLSGNPHIEKESARSIADGAMMEAASVCMGQMEPDQVYEGITFEDFLKIWQGIDIETKMHVRFLNMETMALCH [TESC]” here?
The melting temperature was 51.1 °C.

What about the melting temperature ([1]; cell cycle stage: mitosis) of the same sequence?
The melting temperature was 51.7 °C.

What about the “solubility change mitosis (log2)” value [2] of the same sequence?
Its value is 0.0705.

What about the “solubility in G1/S (log2)” value [3] of the same sequence?
Its value is 0.101.

What about the thermal stability score [4, 5] of the same sequence?
Its thermal stability score is 0.145.

What about the thermal stability score ([4]; cell cycle stage: mitosis) of the same sequence?
The thermal stability score was 1.31.

With “MAETLSGLGDSGAAGAAALSSASSETGTRRLSDLRVIDLRAELRKRNVDSSGNKSVLMERLKKAIEDEGGNPDEIEITSEGNKKTSKRSSKGRKPEEEGVEDNGLEENSGDGQEDVETSLENLQDIDIMDISVLDEAEIDNGSVADCVEDDDADNLQESLSDSRELVEGEMKELPEQLQEHAIEDKETINNLDTSSSDFTILQEIEEPSLEPENEKILDILGETCKSEPVKEESSELEQPFAQDTSSVGPDRKLAEEEDLFDSAHPEEGDLDLASESTAHAQSSKADSLLAVVKREPAEQPGDGERTDCEPVGLEPAVEQSSAASELAEASSEELAEAPTEAPSPEARDSKEDGRKFDFDACNEVPPAPKESSTSEGADQKMSSPEDDSDTKRLSKEEKGRSSCGRNFWVSGLSSTTRATDLKNLFSKYGKVVGAKVVTNARSPGARCYGFVTMSTAEEATKCINHLHKTELHGKMISVEKAKNEPVGKKTSDKRDSDGKKEKSSNSDRSTNLKRDDKCDRKDDAKKGDDGSGEKSKDQDDQKPGPSERSRATKSGSRGTERTVVMDKSKGVPVISVKTSGSKERASKSQDRKSASREKRSVVSFDKVKEPRKSRDSESHSRVRERSEREQRMQAQWEREERERLEIARERLAFQRQRLERERMERERLERERMHVEHERRREQERIHREREELRRQQELRYEQERRPAVRRPYDLDRRDDAYWPEAKRAALDERYHSDFNRQDRFHDFDHRDRGRYPDHSVDRREGSRSMMGEREGQHYPERHGGPERHGRDSRDGWGGYGSDKRMSEGRGLPPPPRRDWGDHGRREDDRSWQGTADGGMMDRDHKRWQGGERSMSGHSGPGHMMNRGGMSGRGSFAPGGASRGHPIPHGGMQGGFGGQSRGSRPSDARFTRRY [SAFB]” as the sequence, how does the melting temperature ([1]; cell cycle stage: G1/S) read?
Its melting temperature is 50 °C.

And the melting temperature ([1]; cell cycle stage: mitosis)?
Its melting temperature is 50.5 °C.

And the “solubility change mitosis (log2)” value [2]?
The value was 0.541.

And the “solubility in G1/S (log2)” value [3]?
The value was -0.896.

What about the thermal stability score [4, 5] of the same sequence?
The thermal stability score was 0.453.

What about the thermal stability score ([4]; cell cycle stage: mitosis) of the same sequence?
The thermal stability score was 0.986.

What does the source list for “MEMPLPPDDQELRNVIDKLAQFVARNGPEFEKMTMEKQKDNPKFSFLFGGEFYSYYKCKLALEQQQLICKQQTPELEPAATMPPLPQPPLAPAAPIPPAQGAPSMDELIQQSQWNLQQQEQHLLALRQEQVTAAVAHAVEQQMQKLLEETQLDMNEFDNLLQPIIDTCTKDAISAGKNWMFSNAKSPPHCELMAGHLRNRITADGAHFELRLHLIYLINDVLHHCQRKQARELLAALQKVVVPIYCTSFLAVEEDKQQKIARLLQLWEKNGYFDDSIIQQLQSPALGLGQYQATLINEYSSVVQPVQLAFQQQIQTLKTQHEEFVTSLAQQQQQQQQQQQQLQMPQMEAEVKATPPPPAPPPAPAPAPAIPPTTQPDDSKPPIQMPGSSEYEAPGGVQDPAAAGPRGPGPHDQIPPNKPPWFDQPHPVAPWGQQQPPEQPPYPHHQGGPPHCPPWNNSHEGMWGEQRGDPGWNGQRDAPWNNQPDAAWNSQFEGPWNSQHEQPPWGGGQREPPFRMQRPPHFRGPFPPHQQHPQFNQPPHPHNFNRFPPRFMQDDFPPRHPFERPPYPHRFDYPQGDFPAEMGPPHHHPGHRMPHPGINEHPPWAGPQHPDFGPPPHGFNGQPPHMRRQGPPHINHDDPSLVPNVPYFDLPAGLMAPLVKLEDHEYKPLDPKDIRLPPPMPPSERLLAAVEAFYSPPSHDRPRNSEGWEQNGLYEFFRAKMRARRRKGQEKRNSGPSRSRSRSKSRGRSSSRSNSRSSKSSGSYSRSRSRSCSRSYSRSRSRSRSRSRSSRSRSRSQSRSRSKSYSPGRRRRSRSRSPTPPSSAGLGSNSAPPIPDSRLGEENKGHQMLVKMGWSGSGGLGAKEQGIQDPIKGGDVRDKWDQYKGVGVALDDPYENYRRNKSYSFIARMKARDECK [CHERP]”?
melting temperature ([1]; cell cycle stage: G1/S): 47.6 °C; melting temperature ([1]; cell cycle stage: mitosis): 49.2 °C; solubility change mitosis (log2) [2]: 0.513; solubility in G1/S (log2) [3]: -0.174; thermal stability score [4, 5]: 1.81; thermal stability score ([4]; cell cycle stage: mitosis): 4.57

Which results are given for “MAVFADLDLRAGSDLKALRGLVETAAHLGYSVVAINHIVDFKEKKQEIEKPVAVSELFTTLPIVQGKSRPIKILTRLTIIVSDPSHCNVLRATSSRARLYDVVAVFPKTEKLFHIACTHLDVDLVCITVTEKLPFYFKRPPINVAIDRGLAFELVYSPAIKDSTMRRYTISSALNLMQICKGKNVIISSAAERPLEIRGPYDVANLGLLFGLSESDAKAAVSTNCRAALLHGETRKTAFGIISTVKKPRPSEGDEDCLPASKKAKCEG [RPP30]”?
melting temperature ([1]; cell cycle stage: G1/S): 55.3 °C; melting temperature ([1]; cell cycle stage: mitosis): 56.1 °C; solubility change mitosis (log2) [2]: -0.0188; solubility in G1/S (log2) [3]: -0.0469; thermal stability score [4, 5]: -0.0475; thermal stability score ([4]; cell cycle stage: mitosis): -1.92
